This note sets out measurements from patent US20080058636A1, “METHODS OF MYOCARDIAL IMAGING” (Epix Pharmaceuticals, Inc., priority 2005, published 2008).

Bridge positions count the residues as written; N and C are the ends. Ends that are not written are not given here. GdT = GdDTPA-thiourea

The chains are these.
B1: Compound ID NO. 1014 (peptide)
chain: KKWHCYTYFPHHYCVYG
modifications: disulfide 5-14 (inferred); also: coupled to ITC-Gd3 (tris-Gd-DOTAGA isothiocyanate), site not given here

rat collagen (acid soluble, type I, rat tail, Upstate 08-115) (rat), sequence (P02454 152-1207, chain 1 of 2): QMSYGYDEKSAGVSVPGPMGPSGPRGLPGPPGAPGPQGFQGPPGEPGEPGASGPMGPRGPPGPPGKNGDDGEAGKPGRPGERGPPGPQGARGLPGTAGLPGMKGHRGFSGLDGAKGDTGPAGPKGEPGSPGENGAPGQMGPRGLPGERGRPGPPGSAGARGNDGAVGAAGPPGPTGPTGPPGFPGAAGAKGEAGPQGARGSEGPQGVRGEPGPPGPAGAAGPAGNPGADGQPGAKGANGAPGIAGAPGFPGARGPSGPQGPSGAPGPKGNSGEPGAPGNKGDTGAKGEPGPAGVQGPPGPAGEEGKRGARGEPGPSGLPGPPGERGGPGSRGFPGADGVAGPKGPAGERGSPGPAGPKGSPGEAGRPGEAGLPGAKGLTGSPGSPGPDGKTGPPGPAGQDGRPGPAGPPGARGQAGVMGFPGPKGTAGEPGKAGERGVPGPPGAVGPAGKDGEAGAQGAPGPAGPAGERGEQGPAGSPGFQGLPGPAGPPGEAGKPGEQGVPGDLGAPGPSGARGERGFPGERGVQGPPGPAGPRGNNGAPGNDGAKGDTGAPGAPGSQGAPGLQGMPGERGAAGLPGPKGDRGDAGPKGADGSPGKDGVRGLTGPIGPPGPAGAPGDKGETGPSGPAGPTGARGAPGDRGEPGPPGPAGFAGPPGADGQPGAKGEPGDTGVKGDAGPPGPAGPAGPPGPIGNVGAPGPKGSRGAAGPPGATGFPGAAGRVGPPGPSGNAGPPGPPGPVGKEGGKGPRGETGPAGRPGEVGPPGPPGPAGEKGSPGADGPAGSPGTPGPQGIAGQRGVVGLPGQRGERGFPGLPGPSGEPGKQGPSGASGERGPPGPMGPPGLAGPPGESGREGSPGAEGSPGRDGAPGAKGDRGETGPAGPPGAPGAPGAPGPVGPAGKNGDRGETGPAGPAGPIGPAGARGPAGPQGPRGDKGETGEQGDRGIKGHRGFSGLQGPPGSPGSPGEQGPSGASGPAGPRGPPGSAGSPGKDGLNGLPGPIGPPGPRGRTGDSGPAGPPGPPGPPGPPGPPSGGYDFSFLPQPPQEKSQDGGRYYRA
rat collagen (acid soluble, type I, rat tail, Upstate 08-115) (rat), sequence (P02466 86-1125, chain 2 of 2, further chain): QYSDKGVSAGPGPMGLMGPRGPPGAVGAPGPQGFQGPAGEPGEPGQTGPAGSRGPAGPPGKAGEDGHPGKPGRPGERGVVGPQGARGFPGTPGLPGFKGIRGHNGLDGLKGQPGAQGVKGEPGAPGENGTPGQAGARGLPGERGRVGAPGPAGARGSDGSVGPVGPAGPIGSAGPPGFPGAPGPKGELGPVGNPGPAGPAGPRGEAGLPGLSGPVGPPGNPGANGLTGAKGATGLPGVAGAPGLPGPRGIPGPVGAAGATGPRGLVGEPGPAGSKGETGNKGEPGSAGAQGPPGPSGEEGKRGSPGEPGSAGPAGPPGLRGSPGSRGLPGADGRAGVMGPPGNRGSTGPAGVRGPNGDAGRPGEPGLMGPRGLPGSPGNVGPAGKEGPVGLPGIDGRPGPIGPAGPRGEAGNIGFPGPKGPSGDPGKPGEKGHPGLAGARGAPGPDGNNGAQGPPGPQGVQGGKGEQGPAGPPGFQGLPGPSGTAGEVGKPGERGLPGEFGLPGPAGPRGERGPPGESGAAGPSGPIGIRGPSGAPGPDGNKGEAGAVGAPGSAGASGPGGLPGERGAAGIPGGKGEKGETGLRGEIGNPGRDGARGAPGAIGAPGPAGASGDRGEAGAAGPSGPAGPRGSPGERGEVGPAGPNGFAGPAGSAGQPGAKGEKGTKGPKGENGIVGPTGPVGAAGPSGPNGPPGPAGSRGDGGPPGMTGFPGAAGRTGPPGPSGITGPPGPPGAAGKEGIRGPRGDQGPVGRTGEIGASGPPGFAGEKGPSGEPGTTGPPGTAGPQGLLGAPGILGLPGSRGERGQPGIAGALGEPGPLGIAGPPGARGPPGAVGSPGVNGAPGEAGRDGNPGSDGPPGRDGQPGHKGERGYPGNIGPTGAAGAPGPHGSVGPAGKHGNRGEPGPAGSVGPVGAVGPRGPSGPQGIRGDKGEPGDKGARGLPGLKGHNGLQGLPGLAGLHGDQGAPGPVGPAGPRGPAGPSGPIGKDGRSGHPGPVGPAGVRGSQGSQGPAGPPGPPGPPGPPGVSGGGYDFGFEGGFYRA

The first experiment deals with human collagen type I (acid soluble, extracted from placenta, Sigma C7774) (human) (UniProt P02452). The experiment in a line: dried collagen assay, 5 uM each.
human collagen type I (acid soluble, extracted from placenta, Sigma C7774) (human), sequence (P02452 162-1218 limits assumed, chain 1 of 2): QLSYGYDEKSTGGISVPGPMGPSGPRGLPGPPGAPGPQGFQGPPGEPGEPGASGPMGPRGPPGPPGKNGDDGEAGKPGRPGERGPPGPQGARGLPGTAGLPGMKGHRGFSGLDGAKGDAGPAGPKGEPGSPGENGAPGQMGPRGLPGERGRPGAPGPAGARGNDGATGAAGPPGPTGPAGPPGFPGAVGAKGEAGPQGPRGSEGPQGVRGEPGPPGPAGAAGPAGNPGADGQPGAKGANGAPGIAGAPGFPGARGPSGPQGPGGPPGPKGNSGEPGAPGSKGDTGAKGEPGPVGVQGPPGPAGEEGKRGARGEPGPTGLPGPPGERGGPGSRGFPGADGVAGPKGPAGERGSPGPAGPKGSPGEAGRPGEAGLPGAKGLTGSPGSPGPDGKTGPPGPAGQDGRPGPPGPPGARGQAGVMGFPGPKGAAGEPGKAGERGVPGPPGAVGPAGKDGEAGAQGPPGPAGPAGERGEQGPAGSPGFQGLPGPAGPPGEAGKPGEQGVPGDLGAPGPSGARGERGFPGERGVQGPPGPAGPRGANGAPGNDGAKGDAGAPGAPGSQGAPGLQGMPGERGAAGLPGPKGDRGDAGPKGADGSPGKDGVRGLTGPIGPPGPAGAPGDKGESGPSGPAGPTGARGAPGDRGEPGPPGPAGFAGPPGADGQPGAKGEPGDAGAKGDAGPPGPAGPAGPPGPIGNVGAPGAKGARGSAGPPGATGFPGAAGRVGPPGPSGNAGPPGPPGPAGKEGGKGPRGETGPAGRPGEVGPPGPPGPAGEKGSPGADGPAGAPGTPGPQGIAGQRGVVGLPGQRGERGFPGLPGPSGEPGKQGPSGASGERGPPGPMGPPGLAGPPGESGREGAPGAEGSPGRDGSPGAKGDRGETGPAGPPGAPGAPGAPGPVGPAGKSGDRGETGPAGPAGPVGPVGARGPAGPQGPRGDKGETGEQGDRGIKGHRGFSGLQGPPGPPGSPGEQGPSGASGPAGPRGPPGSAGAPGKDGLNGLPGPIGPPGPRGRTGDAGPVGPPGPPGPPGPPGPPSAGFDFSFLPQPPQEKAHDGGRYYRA
human collagen type I (acid soluble, extracted from placenta, Sigma C7774) (human), sequence (P08123 80-1119 limits assumed, chain 2 of 2, further chain): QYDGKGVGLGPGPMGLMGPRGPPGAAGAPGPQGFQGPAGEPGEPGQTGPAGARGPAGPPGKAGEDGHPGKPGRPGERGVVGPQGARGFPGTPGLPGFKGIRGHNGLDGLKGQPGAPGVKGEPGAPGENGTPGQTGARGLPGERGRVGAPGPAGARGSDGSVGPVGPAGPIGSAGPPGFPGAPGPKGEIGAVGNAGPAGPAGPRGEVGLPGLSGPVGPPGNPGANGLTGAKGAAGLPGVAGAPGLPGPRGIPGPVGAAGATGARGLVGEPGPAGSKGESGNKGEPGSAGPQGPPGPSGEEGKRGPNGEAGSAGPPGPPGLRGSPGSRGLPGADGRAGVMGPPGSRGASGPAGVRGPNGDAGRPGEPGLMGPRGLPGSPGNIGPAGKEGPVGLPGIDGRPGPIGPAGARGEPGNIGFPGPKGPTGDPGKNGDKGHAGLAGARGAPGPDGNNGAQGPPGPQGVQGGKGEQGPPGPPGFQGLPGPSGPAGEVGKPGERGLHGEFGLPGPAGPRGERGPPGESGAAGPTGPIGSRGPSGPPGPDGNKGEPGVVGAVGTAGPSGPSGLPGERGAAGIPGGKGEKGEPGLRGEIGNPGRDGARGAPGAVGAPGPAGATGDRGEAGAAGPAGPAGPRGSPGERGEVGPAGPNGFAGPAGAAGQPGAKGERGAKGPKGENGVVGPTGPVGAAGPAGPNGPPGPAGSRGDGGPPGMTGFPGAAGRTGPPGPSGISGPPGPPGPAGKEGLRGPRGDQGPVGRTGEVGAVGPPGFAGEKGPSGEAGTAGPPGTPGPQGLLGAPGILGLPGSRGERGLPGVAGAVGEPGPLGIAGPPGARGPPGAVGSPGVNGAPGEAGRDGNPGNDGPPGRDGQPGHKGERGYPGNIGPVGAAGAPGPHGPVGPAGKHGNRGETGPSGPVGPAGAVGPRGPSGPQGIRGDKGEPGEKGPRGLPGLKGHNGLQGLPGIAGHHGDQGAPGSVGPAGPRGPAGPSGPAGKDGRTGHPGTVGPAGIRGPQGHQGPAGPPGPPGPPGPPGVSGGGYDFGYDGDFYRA
Regarding GKWHCYTYFPHHYCLYFK [Compound ID 985], the Human binding stood at 56%.

Take GKWHCYKYFPHHYCLYG [Compound ID 991]: the Human binding turned out to be 23%.

As for KKLWHCYTYFPHHYCVYG [Compound ID 1017], the Human binding was determined as 25%.

GFKWHCTTYFPHHYCLYG [Compound ID 983]: the Human binding came out at 58%.

Consider GKWHCYTYFPHHYCVYGK [Compound ID 974], for which the Human binding amounted to 71%.

Take GKWHCTTYFPHHFCLYG [Compound ID 972]: the Human binding was determined as 3%.

In turn, GKWHCTTKFPHHYCLYY [Compound ID 980] gave a Human binding of 85%.

Molecule GKWHCYTKFPHHYCVYY [Compound ID 979] came in with a Human binding of 87%.

GQWHCTTRFPKHYCLYG [Compound ID 958] yielded a Human binding of 45%.

As to GKWHCYTKFPHHYCLYGK [Compound ID 995], the Human binding is 51%.

GVKWHCTTYFPHHYCLYG [Compound ID 982] showed a Human binding of 40%.

In the case of GKWHCYTYFPYHYCVYG [Compound ID 963], the Human binding was 82%.

B1 registered a Human binding of 72%.

Turning to KKGQWHCTTYFPHHYCLYG [Compound ID 960], the Human binding came out at 30%.

The molecule GKWHCYTKFPHHYCKYY [Compound ID 1013] displayed a Human binding of 81%.

The molecule KKAWHCYTYFPHHYCVYG [Compound ID 1016] returned a Human binding of 48%.

With GKWHCYTYFPHHYCVYYK [Compound ID 975], the Human binding came to 70%.

In the case of GKWHCYTYFPHHYCLYGK [Compound ID 996], the Human binding was found to be 76%.

As to GQWHCKTRFPHHYCLYG [Compound ID 957], the Human binding came out at 42%.

GKWHCYTYFPHHYCLYVK [Compound ID 989] registered a Human binding of 67%.

As for GdT-GQWHCYTKFPHHYCLYGK (disulfide 5-14 (inferred); not fully specified (residues 8, 18, C-terminus)) [Compound ID 993], the Human binding was determined as 75%.

Molecule GKWHCTTYFPHHYCLYYK [Compound ID 976] had a Human binding of 62%.

The molecule KKYWHCYTYFPHHYCVYG [Compound ID 1018] came in with a Human binding of 53%.

Regarding GKWHCYTKFPHHYCVYYY [Compound ID 1010], the Human binding stood at 92%.

GKWHCYTKFPHHYCVYG [Compound ID 978]: the Human binding came to 64%.

With GKWHCYTKFPYHYCVYY [Compound ID 1011], the Human binding worked out at 94%.

For the molecule GdT-GQWHCYTYFPHHYCLYGK (disulfide 5-14 (inferred); not fully specified (residue 18, C-terminus)) [Compound ID 994], the Human binding was found to be 86%.

GKWHCYTYFPYHYCLYG [Compound ID 964] showed a Human binding of 88%.

KKGWHCYTYFPHHYCTYG [Compound ID 1015] yielded a Human binding of 29%.

In turn, GYKWHCTTYFPHHYCLYG [Compound ID 981] returned a Human binding of 73%.

Turning to GKWHCTTYFPTHYCLYG [Compound ID 962], the Human binding came to 20%.

GKWYCTTYFPHHYCLYG [Compound ID 990] yielded a Human binding of 59%.

GKWHCTTYFPHHVCLYG [Compound ID 965]: the Human binding was 26%.

The molecule GHKWHCTTYFPHHYCLYG [Compound ID 984] showed a Human binding of 67%.

GKWHCTTLFPHHVCLYG [Compound ID 966] registered a Human binding of 14%.

The next experiment concerns the target rat collagen (acid soluble, type I, rat tail, Upstate 08-115) (rat) (UniProt P02454). Put plainly: dried collagen assay, 5 uM each.
In turn, GKWHCYTYFPHHYCLYFK [Compound ID 985] displayed a Rat binding of 68%.

As for GKWHCYKYFPHHYCLYG [Compound ID 991], the Rat binding worked out at 11%.

As to KKLWHCYTYFPHHYCVYG [Compound ID 1017], the Rat binding worked out at 18%.

GFKWHCTTYFPHHYCLYG [Compound ID 983] registered a Rat binding of 59%.

GKWHCYTYFPHHYCVYGK [Compound ID 974] yielded a Rat binding of 69%.

GKWHCTTYFPHHFCLYG [Compound ID 972] returned a Rat binding of 0%.

GKWHCTTKFPHHYCLYY [Compound ID 980] gave a Rat binding of 80%.

Molecule GKWHCYTKFPHHYCVYY [Compound ID 979] registered a Rat binding of 86%.

The molecule GQWHCTTRFPKHYCLYG [Compound ID 958] had a Rat binding of 33%.

Molecule GKWHCYTKFPHHYCLYGK [Compound ID 995] showed a Rat binding of 42%.

The molecule GVKWHCTTYFPHHYCLYG [Compound ID 982] displayed a Rat binding of 47%.

In the case of GKWHCYTYFPYHYCVYG [Compound ID 963], the Rat binding was found to be 91%.

B1 gave a Rat binding of 61%.

For the molecule KKGQWHCTTYFPHHYCLYG [Compound ID 960], the Rat binding came out at 34%.

GKWHCYTKFPHHYCKYY [Compound ID 1013] came in with a Rat binding of 88%.

Take KKAWHCYTYFPHHYCVYG [Compound ID 1016]: the Rat binding was found to be 50%.

Molecule GKWHCYTYFPHHYCVYYK [Compound ID 975] gave a Rat binding of 64%.

GKWHCYTYFPHHYCLYGK [Compound ID 996]: the Rat binding amounted to 67%.

Consider GQWHCKTRFPHHYCLYG [Compound ID 957], for which the Rat binding is 39%.

As for GKWHCYTYFPHHYCLYVK [Compound ID 989], the Rat binding stood at 74%.

In turn, GdT-GQWHCYTKFPHHYCLYGK (disulfide 5-14 (inferred); not fully specified (residues 8, 18, C-terminus)) [Compound ID 993] registered a Rat binding of 70%.

Molecule GKWHCTTYFPHHYCLYYK [Compound ID 976] had a Rat binding of 57%.

In turn, KKYWHCYTYFPHHYCVYG [Compound ID 1018] showed a Rat binding of 55%.

As to GKWHCYTKFPHHYCVYYY [Compound ID 1010], the Rat binding turned out to be 89%.

Molecule GKWHCYTKFPHHYCVYG [Compound ID 978] displayed a Rat binding of 66%.

GKWHCYTKFPYHYCVYY [Compound ID 1011] had a Rat binding of 93%.

In turn, GdT-GQWHCYTYFPHHYCLYGK (disulfide 5-14 (inferred); not fully specified (residue 18, C-terminus)) [Compound ID 994] displayed a Rat binding of 84%.

Regarding GKWHCYTYFPYHYCLYG [Compound ID 964], the Rat binding came to 86%.

KKGWHCYTYFPHHYCTYG [Compound ID 1015] gave a Rat binding of 30%.

GYKWHCTTYFPHHYCLYG [Compound ID 981] registered a Rat binding of 81%.

GKWHCTTYFPTHYCLYG [Compound ID 962] gave a Rat binding of 10%.

Molecule GKWYCTTYFPHHYCLYG [Compound ID 990] yielded a Rat binding of 62%.

For the molecule GKWHCTTYFPHHVCLYG [Compound ID 965], the Rat binding was determined as 11%.

Regarding GHKWHCTTYFPHHYCLYG [Compound ID 984], the Rat binding is 69%.

In turn, GKWHCTTLFPHHVCLYG [Compound ID 966] returned a Rat binding of 8%.

For the next experiment, the target named is human collagen type I (acid soluble, extracted from placenta, Sigma C7774) (human) (UniProt P02452). The experiment in a line: dried collagen assay.
Consider NWKCWGVVKWECIWA (disulfide 4-12; also: C-terminus presumably amidated (Rink amide resin)) [SEQ ID NO: 5], for which the Dried Human Collagen Binding came out at 24%.

YHACYQAGCYIY (disulfide 4-9; not fully specified (C-terminus)) [SEQ ID NO: 108] gave a % Collagen Binding of 5%.

Molecule SWSCGGDHNAWKCQYS (disulfide 4-13; also: C-terminus probably amidated (Rink amide resin)) [SEQ ID NO: 36] came in with a Dried Human Collagen Binding of 7%.

TWQCSGNQKWSCEWF (disulfide 4-12; also: C-terminus probably amidated (Rink amide resin)) [SEQ ID NO: 6] showed a Dried Human Collagen Binding of 20%.

For the molecule LWNCHGTDANWKCVLN (disulfide 4-13; also: C-terminus probably amidated (Rink amide resin)) [SEQ ID NO: 37], the Dried Human Collagen Binding was 7%.

Regarding GWSCHGDAADWPCQWS (disulfide 4-13; also: C-terminus probably amidated (Rink amide resin)) [SEQ ID NO: 38], the Dried Human Collagen Binding was found to be 6%.

TWNCYGVTEWHCYMI (disulfide 4-12; not fully specified (C-terminus)) [SEQ ID NO: 9] gave a Dried Human Collagen Binding of 7%.

For the molecule AKKCWYNDGGHLRCRTL (disulfide 4-14; not fully specified (C-terminus)) [SEQ ID NO: 99], the Dried Human Collagen Binding turned out to be 3%.

In the case of GWQCFGASDWHCTWV (disulfide 4-12; not fully specified) [SEQ ID NO: 8], the Dried Human Collagen Binding is 9%.

Turning to YWVCGGDHQSWHCSHP (disulfide 4-13; also: C-terminus probably amidated (Rink amide resin)) [SEQ ID NO: 35], the Dried Human Collagen Binding stood at 8%.
